Data as given in patent US20080227711A1 (LABORATOIRES SERONO, published 2008).

T1: CXCL8/IL-8 (UniProt P10145 28-99, limits assumed)
T1 construct: also called 125I-CXCL8/IL-8; 125I-IL-8
T1 sequence (looked up): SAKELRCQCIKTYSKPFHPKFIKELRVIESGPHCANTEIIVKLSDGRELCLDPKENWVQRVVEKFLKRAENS

T2: murine CXCL2/MIP-2 (murine, UniProt P10889 28-100)
T2 sequence: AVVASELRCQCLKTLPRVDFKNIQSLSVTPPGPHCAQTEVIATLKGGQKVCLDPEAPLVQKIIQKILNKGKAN

T3: CXCL1/Gro-alpha (UniProt P09341 35-107)
T3 construct: also called Gro-α; 125I-CXCL1/Gro-alpha
T3 sequence: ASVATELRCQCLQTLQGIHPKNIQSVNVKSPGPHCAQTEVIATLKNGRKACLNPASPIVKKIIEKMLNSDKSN

T4: murine CXCL1/KC (murine, UniProt P12850 25-96)
T4 sequence: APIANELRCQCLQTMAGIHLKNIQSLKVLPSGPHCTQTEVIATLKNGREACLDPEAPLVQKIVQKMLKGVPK

T5: CX3CL1/Fractalkine (UniProt P78423 25-100)
T5 sequence: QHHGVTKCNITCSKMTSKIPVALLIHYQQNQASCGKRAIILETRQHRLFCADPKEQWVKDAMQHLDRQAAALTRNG

T6: IL-1α (UniProt P01583 113-271)
T6 construct: also called 125I-IL-1
T6 sequence: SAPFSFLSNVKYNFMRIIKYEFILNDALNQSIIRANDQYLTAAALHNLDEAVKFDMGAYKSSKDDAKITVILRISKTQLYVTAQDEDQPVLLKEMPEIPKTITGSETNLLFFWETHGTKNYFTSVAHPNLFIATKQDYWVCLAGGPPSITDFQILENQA

T7: CTACK/CCL27 (UniProt Q9Y4X3 25-112)
T7 construct: also called 125I-CCL27/CTACK
T7 sequence: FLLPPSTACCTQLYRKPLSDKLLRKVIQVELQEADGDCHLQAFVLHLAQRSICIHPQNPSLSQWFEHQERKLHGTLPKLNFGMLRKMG

T8: CXCL10/IP-10 (UniProt P02778 22-98)
T8 construct: also called 125I-CXCL10/IP-10
T8 sequence: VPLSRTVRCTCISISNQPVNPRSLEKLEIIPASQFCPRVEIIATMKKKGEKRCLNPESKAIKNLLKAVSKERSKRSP

B1: CCL4/MIP-1-beta (ligand)
chain: APMGSDPPTACCFSYTARKLPRNFVVDYYETSSLCSQPAVVFQTKRSKQVCADPSESWVQEYVYDLELN
notes: also called MIP-1β
B2: recombinant Evasin-3-6His purified from HEK293 cells (other)
chain: LVSTIESRTSGDGADNFDVVSCNKNCTSGQNECPEGCFCGLLGQNKKGHCYKIIGNLSGEPPVVRRHHHHHH
modifications: glycosylation on the S and T residues of the N-terminal sequence LVSTIESRTS (80% of the mature protein); heterogeneous post-translational modification, smear of 20-30 Kd
notes: also called Evasin-3-HIS; mature Evasin-3-HIS
B3: CCL5/RANTES (ligand)
chain: SPYSSDTTPCCFAYIARPLPRAHIKEYFYTSGKCSNPAVVFVTRKNRQVCANPEKKWVREYINSLEMS
notes: also called 125I-CCL5/RANTES
B4: CCL3/MIP-1-alpha (ligand)
chain: SLAADTPTACCFSYTSRQIPQNFIADYFETSSQCSKPGVIFLTKRSRQVCADPSEEWVQKYVSDLELSA
notes: also called MIP-1α
B5: CCL18/PARC (ligand)
chain: AQVGTNKELCCLVYTSWQIPQKFIVDYSETSPQCPKPGVILLTKRGRQICADPNKKWVQKYISDLKLNA
B6: TARC/CCL17 (ligand)
chain: ARGTNVGRECCLEYFKGAIPLRKLKTWYQTSEDCSRDAIVFVTVQGRAICSDPNNKRVKNAVKYLQSLERS
notes: also called 125I-CCL17/TARC

Experiments:
[1] = target: B2; test: SPR (Biacore 3000), Evasin-3-6His immobilized on CM4 chip, chemokine injected
CXCL8/IL-8 [2] = target: T1, CXCL8/IL-8; test: equilibrium competition receptor binding assay: inhibition of 0.1 nM 125I-IL-8 binding to CHO/CXCR1 cells
murine CXCL2/MIP-2 [3] = target: T2, murine CXCL2/MIP-2; test: SPR (Biacore 3000), Evasin-3-6His immobilized on CM4 chip, Kd=kd/ka
CXCL8/IL-8 [4] = target: T1, CXCL8/IL-8; test: as above
CXCL1/Gro-alpha [5] = target: T3, CXCL1/Gro-alpha; test: as above
murine CXCL1/KC [6] = target: T4, murine CXCL1/KC; test: as above
CXCL8/IL-8 [7] = target: T1, CXCL8/IL-8; test: cell-based or functional assay
CXCL1/Gro-alpha [8] = target: T3, CXCL1/Gro-alpha; test: cell-based or functional assay
CXCL12/SDF-1-alpha = target: T9, CXCL12/SDF-1-alpha (UniProt P48061 22-89); test: SPR (Biacore 3000), Evasin-3-6His immobilized on CM4 chip, chemokine injected
T9 construct: also called SDF-1α

CCL11/eotaxin = target: T10, CCL11/eotaxin (UniProt P51671 24-97); test: as above
T10 construct: also called 125I-eotaxin

CX3CL1/Fractalkine = target: T5, CX3CL1/Fractalkine; test: as above
murine CXCL2/MIP-2 [9] = target: T2, murine CXCL2/MIP-2; test: SPR (Biacore 3000), Evasin-3-6His immobilized on CM4 chip, chemokine injected, Langmuir global fit
CXCL8/IL-8 [10] = target: T1, CXCL8/IL-8; test: as above
CXCL1/Gro-alpha [11] = target: T3, CXCL1/Gro-alpha; test: as above
murine CXCL1/KC [12] = target: T4, murine CXCL1/KC; test: as above
IL-2 = target: T11, IL-2 (UniProt P60568 21-153); test: BS3 cross-linking of 125I-labelled protein to Evasin-3-6His, SDS-PAGE autoradiography (FIG. 7)
T11 construct: also called 125I-IL-2

CCL2/MCP-1 = target: T12, CCL2/MCP-1 (UniProt P13500 24-99); test: as above
T12 construct: also called 125I-MCP-1

IL-1α = target: T6, IL-1α; test: as above
CTACK/CCL27 = target: T7, CTACK/CCL27; test: as above
CXCL10/IP-10 = target: T8, CXCL10/IP-10; test: as above
[13] = target: B2; test: as above
[14] = target: B2; test: competition for BS3 cross-linking of 125I-CXCL8/IL-8 to recombinant Evasin-3 in HEK293 supernatant, SDS-PAGE autoradiography

T12 sequence (P13500 24-99 limits assumed): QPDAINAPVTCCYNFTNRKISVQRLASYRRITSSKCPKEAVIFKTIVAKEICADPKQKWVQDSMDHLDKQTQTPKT
T9 sequence (P48061 22-89 limits assumed): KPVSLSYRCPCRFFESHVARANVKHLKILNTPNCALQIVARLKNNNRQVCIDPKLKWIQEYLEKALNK
T10 sequence (P51671 24-97 limits assumed): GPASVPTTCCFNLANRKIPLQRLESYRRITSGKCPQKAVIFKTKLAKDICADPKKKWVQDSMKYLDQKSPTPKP
T11 sequence (P60568 21-153 limits assumed): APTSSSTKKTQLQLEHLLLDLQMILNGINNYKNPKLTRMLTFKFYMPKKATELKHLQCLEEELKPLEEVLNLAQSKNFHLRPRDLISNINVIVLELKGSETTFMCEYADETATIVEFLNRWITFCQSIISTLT

B1
binding result [1]: no binding (tested: 0.5 µg/ml chemokine)

B2
IC50 (CXCL8/IL-8 [2]): 1 nM | Kd (murine CXCL2/MIP-2 [3]): 0.18 nM | Kd (CXCL8/IL-8 [4]): 0.22 nM | Kd (CXCL1/Gro-alpha [5]): 0.45 nM | Kd (murine CXCL1/KC [6]): 5.34 nM | IC50 of inhibition of IL-8 induced chemotaxis of human neutrophils (CXCL8/IL-8 [7]): 16 nM | IC50 of inhibition of Gro-alpha induced chemotaxis of human neutrophils (CXCL1/Gro-alpha [8]): 20 nM | binding result (CXCL12/SDF-1-alpha): no binding (tested: 0.5 µg/ml chemokine) | binding result (CCL11/eotaxin): no binding (tested: 0.5 µg/ml chemokine) | binding result (CX3CL1/Fractalkine): no binding (tested: 0.5 µg/ml chemokine) | koff (murine CXCL2/MIP-2 [9]): 0.000255 s⁻¹ | kon (murine CXCL2/MIP-2 [9]): 1.43e+06 M⁻¹ s⁻¹ | koff (CXCL8/IL-8 [10]): 0.000178 s⁻¹ | kon (CXCL8/IL-8 [10]): 826000 M⁻¹ s⁻¹ | koff (CXCL1/Gro-alpha [11]): 0.00117 s⁻¹ | kon (CXCL1/Gro-alpha [11]): 2.6e+06 M⁻¹ s⁻¹ | koff (murine CXCL1/KC [12]): 0.0012 s⁻¹ | kon (murine CXCL1/KC [12]): 225000 M⁻¹ s⁻¹ | binding result (IL-2): no binding (tested: 0.23 nM 125I-labelled protein) | binding result (CCL2/MCP-1): no binding (tested: 0.23 nM 125I-labelled protein) | binding result (IL-1α): no binding (tested: 0.23 nM 125I-labelled protein) | binding result (CTACK/CCL27): no binding (tested: 0.23 nM 125I-labelled protein) | binding result (CXCL10/IP-10): no binding (tested: 0.23 nM 125I-labelled protein)

B3
binding result [13]: no binding (tested: 0.23 nM 125I-labelled protein)

B4
binding result [14]: no binding (tested: 1 µg unlabelled (500 fold excess))

B5
binding result [1]: no binding (tested: 0.5 µg/ml chemokine)

B6
binding result [13]: no binding (tested: 0.23 nM 125I-labelled protein)
